Columns and labels:
[1] = target: Variant I: V221S+N222S+Q223T (Humicola insolens)
[2] = target: Variant II: V240P+Q241P (Humicola insolens)
[3] = target: Humicola insolens 43 kD endoglucanase (Humicola insolens)

**Q.** With “Savinase protease (from UniProt P29600) (enzyme)” as the substance, how does the Residual Activity, % DAA (25° C., 5 d storage in liquid detergent with protease) [1] read?
**A.** 83 % DAA

**Q.** What about the Residual Activity, % DAA (25° C., 5 d storage in liquid detergent with protease) [2] of the same substance?
**A.** 81 % DAA

**Q.** What about the Residual Activity, % DAA (25° C., 5 d storage in liquid detergent with protease) [3] of the same substance?
**A.** 63 % DAA
